# Experimental data taken from patent publication US20220252583A1.
# B1: biomarker C-reactive protein (CRP) (protein, human, UniProt P02741 19-224, looked up)
# chain: QTDMSRKAFVFPKESDTSYVSLKAPLTKPLKAFTVCLHFYTELSSTRGYSIFSYATKRQDNEILIFWSKDIGYSFTVGGSEILFEVPEVTVAPVHICTSWESASGIVEFWVDGKPRVRKSLKKGYTVGAEASIILGQEQDSFGGNFEGSQSLVGDIGNVNMWDFVLSPDEINTIYLGGPFSPNVLNWRALKYEVQGEVFTKPQLWP
# What was measured:
# [1] = target: monoclonal mouse IgG1 anti human CRP antibody B08; assay: swCNT-FET displacement of peptide 80715-Au nanoparticle complex from immobilised B08; CRP 3 pM in PBS
# [2] = target: monoclonal mouse IgG1 anti human CRP antibody B08; assay: swCNT-FET displacement of peptide 80715-Au nanoparticle complex from immobilised B08; CRP 24 pM in PBS
# [3] = target: monoclonal mouse IgG1 anti human CRP antibody B08; assay: swCNT-FET displacement of peptide 80715-Au nanoparticle complex from immobilised B08; CRP 100 nM in PBS
# [4] = target: monoclonal mouse IgG1 anti human CRP antibody B08; assay: swCNT-FET displacement of peptide 80715-Au nanoparticle complex from immobilised B08; CRP 195 pM in PBS
# [5] = target: monoclonal mouse IgG1 anti human CRP antibody B08; assay: swCNT-FET displacement of peptide 80715-Au nanoparticle complex from immobilised B08; CRP 381 fM in PBS
# [6] = target: monoclonal mouse IgG1 anti human CRP antibody B08; assay: swCNT-FET displacement of peptide 80715-Au nanoparticle complex from immobilised B08; CRP 800 nM in PBS
# [7] = target: monoclonal mouse IgG1 anti human CRP antibody B08; assay: swCNT-FET displacement of peptide 80715-Au nanoparticle complex from immobilised B08; CRP 1.56 nM in PBS
# [8] = target: monoclonal mouse IgG1 anti human CRP antibody B08; assay: swCNT-FET displacement of peptide 80715-Au nanoparticle complex from immobilised B08; CRP 12.5 nM in PBS
binder,measurement,setting,value
B1,ΔV (V),[1],-0.013 V
same,ΔV (V),[2],-0.016 V
same,ΔV (V),[3],-0.024 V
same,ΔV (V),[4],-0.017 V
same,ΔV (V),[5],-0.009 V
same,ΔV (V),[6],-0.027 V
same,ΔV (V),[7],-0.02 V
same,ΔV (V),[8],-0.022 V
